Results: patent publication US20250333515A1 (VOR BIOPHARMA, published 2025)

T1: CLL-1 on the surface of CLL-1-positive AML cell lines (HL-60 WT, U937) (human, UniProt Q5QGZ9 1-265)
T1 construct: whole, on cells; also called HL-60 WT cells; U937 cells
T1 sequence (looked up): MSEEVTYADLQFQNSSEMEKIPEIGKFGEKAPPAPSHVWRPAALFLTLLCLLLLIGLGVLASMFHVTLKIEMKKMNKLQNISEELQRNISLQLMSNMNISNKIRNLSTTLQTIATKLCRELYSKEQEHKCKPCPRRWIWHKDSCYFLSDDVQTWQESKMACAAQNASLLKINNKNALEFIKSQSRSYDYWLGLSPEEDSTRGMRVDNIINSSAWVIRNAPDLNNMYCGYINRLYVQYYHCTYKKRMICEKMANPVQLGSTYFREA

T2: biotinylated recombinant CLL-1 protein (UniProt Q5QGZ9 65-265, limits assumed, biotinylated (site not stated))
T2 construct: also called CLEC12A
T2 sequence (looked up): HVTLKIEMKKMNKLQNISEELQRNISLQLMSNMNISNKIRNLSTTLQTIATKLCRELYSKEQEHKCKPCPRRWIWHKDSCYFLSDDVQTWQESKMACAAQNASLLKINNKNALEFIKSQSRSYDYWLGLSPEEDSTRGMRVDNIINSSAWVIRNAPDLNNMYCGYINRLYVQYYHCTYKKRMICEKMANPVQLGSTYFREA

B1: Anti-CLL-1 Binder Clone 4 (scFv)
scFv: QSVVTQPPSVSAAPGQKVTISCSGSSPNIGKNYVSWYQQLPGTAPKLLIYDNNKRPSGIPDRFSGSKSGTSATLGITGLQTGDEADYYCGTWDSSLSGYVFGTGTKVTVLGGGGSGGGGSGGGGSQVQLVESGGGVVQPGRSLRLSCAASGFTFSSYGMHWVRQAPGKGLEWVAFISHDGSNKYYADSVKGRSTISRDNSKSTLFLQMNSLRDEDTAVYFCAREGQLTTSWDFFDYWGHGTLVTVSS
notes: scFv (VL-linker-VH); not shown: FLAG tag
B2: Anti-CLL-1 Binder Clone 38 (scFv)
scFv: DIQMTQSPSTLSASVGDRVTITCRASQSISSWLAWYQQKPGKAPKLLIYTASSLQSGVPSRFSGSESGTDFTLTISSLQPEDFATYYCQQSYSTPLTFGGGTKVDIKGGGGSGGGGSGGGGSQVQLVQSGAEVKKPGASVKVSCKASGYTFTGYYMHWVRQAPGQGLEWMGWINPNSGGTNYAQKFQGRVTLTRDTSITTAYLELTSLTSDDTAVYYCARGDTGDFFDHWGQGTLVTVSS
notes: as for B1
B3: Anti-CLL-1 Binder Clone 40 (scFv)
scFv: QSVLTQPPSVSAAPGQKVTISCSGSSSNIGNNYVSWYQQLPGTAPKLLIYDNNKRPSGIPDRFSGSESGTSATLGITGLQTGDEADYYCGTWDSSLSAWVFGGGTQLIILGGGGSGGGGSGGGGSQVQLQQSGPGLVKPSQTLSLTCAISGDSVSSNSAAWNWIRQSPSRGLEWLGRTHYRSKWYNDYAVSVKSRITISADTSKNQFSLQLNSVTPEDTAVYYCARDRYTVRPDAFDIWGQGTTVTVSS
notes: as for B1
B4: Anti-CLL-1 Binder Clone 2 (scFv)
scFv: QSVLTQPLSVSVALGQTARITCGGNNIGSKNVHWYQQKAGQAPVLVIQRDSNRPSGIPERFSGSNSGNTATLTISRAQAGDEADYFCQVWDSNTYVFGTGTKLTVLGGGGSGGGGSGGGGSEVQLVESGGGLVKPGGSLRLSCAASGFTFSDYYMSWIRQAPGKGLEWVSYISSSGSTIYYADSVKGRFTISRDNAKNSLYLQMNSLRDEDTAVYYCARQSAEIVGAFDHWGQGTMVTVSS
notes: as for B1
B5: Anti-CLL-1 Binder Clone 12 (scFv)
scFv: DIQMTQSPSSLSASVGDRVTITCQASQDISNYLNWYQQKPGKAPKLLIYDASNLETGVPSRFSGSGSGTDFTLTISSPQPEDLATYYCQQANSFPFTFGQGTKVEIKGGGGSGGGGSGGGGSQVQLVQSGAEVKKPGSSVKVSCKASGYSFTRNDITWVRQANGRGLEWLGRLNPNNGDTVYAEVFQGRVAMTRDTSTDTAYMELASLKSDDTAVYFCARGFWSFDVWGQGTMVTVSS
notes: as for B1
B6: Anti-CLL-1 Binder Clone 1 (scFv)
scFv: SYVLTQPPSVSVAPGQTARITCGGNNIGSKSVHWYQQKPGQAPVLVVYDDSDRPSGIPERFSGSNSGNTATLTISRVEAGDEADYYCQVWDSSSDHPVFGGGTQLIILGGGGSGGGGSGGGGSQVQLVQSGAEVKKPGSSVKVSCKASGGTFSSYAISWVRQAPGQGLEWMGRIIPILGIANYAQKFQGRVTITADESTSTAYMELSSLRSEDTAVYYCAREKDDILTGAYYYGMDVWGQGTTVTVSS
notes: scFv (VL-linker-VH) from a fully human scFv phage library; not shown: FLAG tag
B7: Anti-CLL-1 Binder Clone 42 (scFv)
scFv: EIVLTQSPATLSLSPGERATLSCRASQSVSSYLAWYQQKPGQAPRLLIYDASNRATGIPDRFSGSGSGTDFTLTISRLEPEDFAVYYCQQYGSSPVTFGQGTKLEIKGGGGSGGGGSGGGGSQVQLVQSGAEVKKPGSSVKVSCKASGGTFSSYAISWVRQAPGQGLEWMGGIIPIFGTANYAQKFQGRVIMTTDTSTSTAHMELRSLRSDDTAVYYCARDADEFGAFDIWGQGTTVTVSS
notes: as for B1
B8: Anti-CLL-1 Binder Clone 6 (scFv)
scFv: QSVLTQPPSVSAAPGQKVSIFCSGGSSNIGKNYVSWYQQLPGTAPKLLIYENQHRPSGIPDRFSGSKSGTSATLGITGLQTGDEADYYCATWDDSLSAGVFGGGTELTVLGGGGSGGGGSGGGGSQLVQSGAEVRKPGESLKISCKGSGYSFTSYWIGWVRQMPGKGLEWMGFIYPGDSDTRYSPSFQGQVTISADKSISTAYLQRSSLKASDTAMYYCARLGGYSGYDSEVFYLDYWGQGTTVTVSS
notes: as for B1
B9: Anti-CLL-1 Binder Clone 10 (scFv)
scFv: DIQMTQSPSFLSASVGDRVTITCRASQGISSYLAWYQQKPGKAPKLLIYSASSLQSGVPSRFSGSGSGTDFTLTISSLQPEDFATYYCQQSYNSPTFGQGTRLEIKGGGGSGGGGSGGGGSQVQLVQSGAEVKKPGASVKVSCKASGYTFTGYYMHWVRQAPGQGLEWMGWMNPNSGNTGYAQKFQGRVTMTRNTSISTAYLELTSLTSDDTAVYYCARGDTGDFFDHWGQGTLVTVSS
notes: as for B1
B10: Anti-CLL-1 Binder Clone 11 (scFv)
scFv: QSVLTQPASVSGSPGQSITISCTGTSSDVGASNSVSWYQRHPGKPPKLMIYDVSNRPSGISNRFSGSKSGNTASLTISGLQSEDEADYYCSSYTGSSTFVVFGGGTQLIILGGGGSGGGGSGGGGSEVQLVESGGGVVQPGGSLRLSCAASGFTFSSYWMSWVRQAPGKGLEWVANIRQDGSEKYYVDSVKGRFTISRDNAKNSLYLQMNSLRAEDAAVYYCAREQDTAMVAFDYWGQGTLVTVSS
notes: as for B1
B11: Anti-CLL-1 Binder Clone 20 (VHH)
VHH: QVQLVQSGGGLVQPGGSLRLSCAASDFSFSYYEMSWVRQAPGKGLEWVSTISGSGDSTYYADSVKGRFTISRDNTKNTLYLQMNTLRAEDTATYYCMTDGETWGTHRYTVYWGQGALVTVSS
notes: also called 20 VH; VH clone 20; not shown: FLAG tag

Target: T1, CLL-1 on the surface of CLL-1-positive …
Assay: multi-point flow cytometry on HL-60 WT cells, FLAG-tagged binder, anti-FLAG AlexaFluor 488
Procedure: Target cell staining was assessed relative to control samples comprising cells stained with secondary antibodies only (see FIG. 6). Multi-point FACS via flow cytometry was performed to assess dose-depending binding of CLL-1 antibody binders to the cell surface of HL-60 WT cells. Un-fixed, un-permeabilized cells were incubated with various concentrations of purified FLAG-tagged anti-CLL-1 antibody clones and cell-surface binding was detected by subsequent incubation in the presence of rabbit anti-FLAG tag antibody AlexaFluor 488-conjugate antibody (R&D Systems).

Going from B1 to B2, the EC50 falls from 6.4 nM to 1.6 nM (4-fold). The second is the more potent here.

Going from B3 to B4, the EC50 falls from 11.4 nM to 1.8 nM (6.3-fold).

Going from B5 to B6, the EC50 rises from 0.2 nM to 3.2 nM (16-fold).

Compared with B7, B8 is 27-fold higher in EC50: 2.2 nM for the first, 59 nM for the second. The first is the more potent here.

B9 and B10 are the same in EC50: 0.2 nM for the first, 0.2 nM for the second.

Target: T1, CLL-1 on the surface of CLL-1-positive …
Assay: flow cytometry, U937, 200 nM; last table names out of step
Procedure: (§1) HL60 WT, U937, or HL-60 CLL-1 knockout (KO) control cells were counted, washed in PBS and mixed with 1 ml of Fixable Viability dye eFluor 780 (diluted at 1:1000 in PBS) then incubated at room temperature for 10 minutes to distinguish Live/Dead cells. Subsequently the cells were washed once with FACS Buffer (PBS with 2% FBS) and incubated with human TruStain FcX™ (Fc block diluted at 1:10 in FACS buffer) at room temperature for 5 minutes. Fc blocked cells were stained with 50 μL of the primary CLL-1 antibody (at 200 nM concentrations) and incubated at 4° C. for 30 minutes in the dark. Cells were subsequently stained with 100 μL of secondary antibody (AF488 Rabbit anti-FLAG-tag diluted at 1:1000) incubated at 4° C. for 30 minutes in the dark. Cells were washed and flow cytometric analysis was performed using flow cytometry and data analysis was performed using FlowJo.

First: B1
Second: B2
The “Geometric Mean : B530-H” value of the first is lower: 33600 for the first, 55300 for the second.

Compared with B4, B5 is higher in “Geometric Mean : B530-H” value: 50800 for the first, 59600 for the second.

Compared with B11, B6 is higher in “Geometric Mean : B530-H” value: 27000 for the first, 46300 for the second.

Going from B7 to B8, the “Geometric Mean : B530-H” value rises from 29000 to 34300.

First: B9
Second: B10
The “Geometric Mean : B530-H” value of the first is lower: 52100 for the first, 60200 for the second.

Target: T1, CLL-1 on the surface of CLL-1-positive …
Assay: flow cytometry, HL-60 WT, 200 nM; secondary only 5600
Procedure: as §1

Going from B1 to B2, the “Geometric Mean : B530-H” value rises from 11600 to 19800.

First: B3
Second: B4
The “Geometric Mean : B530-H” value of the first is higher: 23100 for the first, 11100 for the second.

Compared with B5, B11 is lower in “Geometric Mean : B530-H” value: 11800 for the first, 9110 for the second.

Going from B6 to B7, the “Geometric Mean : B530-H” value falls from 18100 to 10400.

First: B8
Second: B9
The “Geometric Mean : B530-H” value of the first is lower: 9390 for the first, 24900 for the second.

For B10, the “Geometric Mean : B530-H” value was 20500.

Target: T2, biotinylated recombinant CLL-1 protein
Assay: ELISA; biotinylated CLL-1 on neutravidin plate, FLAG-tagged binder, anti-FLAG HRP
Procedure: Dose-depending binding activities were analyzed by ELISA. COSTAR® microtiter plates were coated with 1 μg/mL neutravidin protein. Following washing, neutravidin-coated wells were seeded with 100 nM of biotinylated recombinant CLL-1 protein. Following washing, purified FLAG-tagged CLL-1 antibody binders were added to the wells and subsequently detected by mouse anti-FLAG tag HRP conjugate (Sigma).

First: B1
Second: B2
The EC50 of the first is 2.3-fold higher: 1.4 nM for the first, 0.6 nM for the second.

Going from B3 to B4, the EC50 rises from 0.5 nM to 0.9 nM (1.8-fold).

B5 and B11 are within 1.5-fold of each other in EC50: 3.7 nM for the first, 4.7 nM for the second.

First: B6
Second: B7
The EC50 of the first is 2.3-fold higher: 3.4 nM for the first, 1.5 nM for the second. The second is the more potent here.

B8 and B9 are within 1.5-fold of each other in EC50: 0.9 nM for the first, 1.1 nM for the second.

Binder B10 has an EC50 of 1.4 nM.
